“And” between values parts separate entries of the source, which are not always exact repeats. Identical values can stand only once. Each block holds one binder with its values, some of them ahead of it. Bridges are numbered along the chain shown (N, C = ends). Where no end group is shown, it is not given here. [ ]: non-standard residue; d: D form. Phe(4-NO2) = N[C@@H](Cc1ccc([N+](=O)[O-])cc1)C(=O)O; pS = N[C@@H](COP(=O)(O)O)C(=O)O; azidoPhe = azido phenylalanine; β3hS = N[C@@H](CO)CC(=O)O; βAla = NCCC(=O)O
B3: 14-3-3β (natural protein, UniProt P31946 1-246, looked up)
chain: MTMDKSELVQKAKLAEQAERYDDMAAAMKAVTEQGHELSNEERNLLSVAYKNVVGARRSSWRVISSIEQKTERNEKKQQMGKEYREKIEAELQDICNDVLELLDKYLIPNATQPESKVFYLKMKGDYFRYLSEVASGDNKQTTVSNSQQAYQEAFEISKKEMQPTHPIRLGLALNFSVFYYEILNSPEKACSLAKTAFDEAIAELDTLNEESYKDSTLIMQLLRDNLTLWTSENQGDEGDAGEGEN
notes: 14-3-3 protein, beta isoform; also called 14-3-3 protein
B4: macrocycle F1 (peptide)
chain: SFSXFKXK
modifications: not fully specified; fluorescein isothiocyanate (FITC) on the side chain of the first lysine; β-alanine after it; phosphoserine; triazole from azido phenylalanine (replacing Nph(+1)) cyclised to the backbone amide nitrogen between Lys(+5) and Nph(+4), linker x = 1; β-homoSer(+2); β-Ala(+3); 4-nitrophenylalanine Nph(+4)

Assays:
Conditions in all cases: both partners purified
[1] = biological target: T1, full-length human 14-3-3γ protein with a N-terminal His6 tag (human, UniProt P61981 1-247); test: ITC; 200 μM macrocycle or pepD titrated to 20 μM 14-3-3γ; 25 mM HEPES pH 8.0, 100 mM NaCl, 10 mM MgCl2, 500 µM TCEP; 25 °C; fitted with SEDPHAT; mean ± SD, n=3
T1 construct: 14-3-3 protein gamma, human, full length; TEV cleavage of the His6 tag is told only for the 14-3-3σ ΔC construct; source: E. coli BL21(DE3), pPROEX HTb, purified (Ni-NTA, dialysis)
T1 sequence (looked up): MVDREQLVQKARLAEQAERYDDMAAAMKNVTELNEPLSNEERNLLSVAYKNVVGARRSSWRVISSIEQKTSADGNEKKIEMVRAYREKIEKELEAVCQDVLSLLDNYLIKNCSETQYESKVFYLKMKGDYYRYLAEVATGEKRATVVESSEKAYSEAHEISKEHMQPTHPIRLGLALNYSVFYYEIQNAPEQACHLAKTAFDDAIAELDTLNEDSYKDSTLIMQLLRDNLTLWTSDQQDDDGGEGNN

[2] = biological target: T2, recombinant 14-3-3γ-Twinstrep protein (human, UniProt P61981 1-247); test: SPR; affinity fit (steady-state response against concentration, 1:1 model); Twinstrep-tagged 14-3-3γ captured on a Strep-Tactin XT chip, 2-fold dilutions of Ac-macrocycle or pepD injected; 25 °C; 10 mM HEPES pH 7.4, 200 mM NaCl, 50 μM EDTA, 0.005% P20; two replicates and their average
T2 construct: 14-3-3 protein gamma; The expression of the Twinstrep construct is not described; also called Twinstrep-tagged 14-3-3γ; source: recombinant
T2 sequence (looked up): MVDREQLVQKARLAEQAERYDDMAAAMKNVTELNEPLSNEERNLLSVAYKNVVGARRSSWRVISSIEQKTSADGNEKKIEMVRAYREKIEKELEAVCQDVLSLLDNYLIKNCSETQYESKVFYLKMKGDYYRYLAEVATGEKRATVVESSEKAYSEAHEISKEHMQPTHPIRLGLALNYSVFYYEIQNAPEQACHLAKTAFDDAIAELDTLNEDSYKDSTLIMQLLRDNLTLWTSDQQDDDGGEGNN

[3] = biological target: T2, recombinant 14-3-3γ-Twinstrep protein; test: SPR; kinetic fit (1:1 model, global); Twinstrep-tagged 14-3-3γ captured on a Strep-Tactin XT chip (about 1000 RU), 2-fold dilutions of Ac-macrocycle or pepD injected; multi-cycle; 25 °C; 10 mM HEPES pH 7.4, 200 mM NaCl, 50 μM EDTA, 0.005% P20; two replicates and their average
[4] = biological target: T3, full-length human 14-3-3β protein with a N-terminal His6 tag (human, UniProt P31946 1-246); test: fluorescence polarisation; 2D fluorescence anisotropy titration, replicate 2: 14-3-3β titrated (from 250 µM) to FITC-labeled macrocycle or pepD with varying ChREBP peptide starting at 10 μM; KD I (binary affinity of the macrocycle for a site of the 14-3-3 dimer) fitted by the thermodynamic cooperativity model with KD II fixed at 1.5 µM; 10 mM HEPES pH 7.4, 150 mM NaCl, 0.1% Tween20, 0.1% BSA; room temperature
T3 construct: 14-3-3 protein beta/alpha, human, full length; Treated as a dimer in the thermodynamic model (Pp = 14-3-3 dimer); also called Pp (14-3-3 dimer); source: E. coli BL21(DE3), pPROEX HTb, purified (Ni-NTA, dialysis)
T3 sequence (looked up): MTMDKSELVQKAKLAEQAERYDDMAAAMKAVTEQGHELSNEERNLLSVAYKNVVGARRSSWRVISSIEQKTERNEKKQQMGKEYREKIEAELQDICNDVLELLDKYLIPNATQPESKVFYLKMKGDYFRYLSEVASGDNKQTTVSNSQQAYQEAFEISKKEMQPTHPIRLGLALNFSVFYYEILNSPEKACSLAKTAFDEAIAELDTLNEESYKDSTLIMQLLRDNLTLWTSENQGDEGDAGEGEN

[5] = biological target: T3, full-length human 14-3-3β protein with …; test: fluorescence polarisation; 2D fluorescence anisotropy titration, replicate 1: 14-3-3β titrated (from 250 µM) to FITC-labeled macrocycle or pepD with varying ChREBP peptide starting at 20 μM; KD I (binary affinity of the macrocycle for a site of the 14-3-3 dimer) fitted by the thermodynamic cooperativity model with KD II fixed at 1.5 µM; 10 mM HEPES pH 7.4, 150 mM NaCl, 0.1% Tween20, 0.1% BSA; room temperature
macrocycle F1 = biological target: B4; test: fluorescence polarisation; two-dimensional fluorescence anisotropy; 14-3-3β titrated to FITC-labeled F1, F2, F3, F4 or pepD (10 nM) with varying concentrations of ChREBP peptide; fitted to a thermodynamic cooperativity model with KD II fixed at 1.5 µM; n = 2
macrocycle F4 = biological target: T4, macrocycle F4 (not fully specified; fluorescein isothiocyanate (FITC) on the side chain of the first lysine; β-alanine after it; phosphoserine; triazole from azido phenylalanine (replacing Nph(+1)) cyclised to the …); test: as above
T4 chain: SFSXFKXK

FITC-labeled pepD = FITC-labeled pepD (FITC label (position not given); phosphoserine (pSer); 4-nitrophenylalanine Nph(+1) and Nph(+4), counting from pSer); test: as above
macrocycle F3 = biological target: T5, macrocycle F3 (not fully specified; fluorescein isothiocyanate (FITC) on the side chain of the first lysine; β-alanine after it; phosphoserine; triazole from azido phenylalanine (replacing Nph(+1)) cyclised to the …); test: as above
T5 chain: SFSXFKXK

14-3-3γ = biological target: T6, 14-3-3γ (UniProt P61981 1-247); test: fluorescence polarisation; fluorescence anisotropy; 14-3-3γ titrated to FITC-labeled macrocycles F1-F4 and pepD (10 nM); mean ± SD, n = 3
T6 construct: 14-3-3 protein, gamma isoform; also called 14-3-3 protein
T6 sequence (looked up): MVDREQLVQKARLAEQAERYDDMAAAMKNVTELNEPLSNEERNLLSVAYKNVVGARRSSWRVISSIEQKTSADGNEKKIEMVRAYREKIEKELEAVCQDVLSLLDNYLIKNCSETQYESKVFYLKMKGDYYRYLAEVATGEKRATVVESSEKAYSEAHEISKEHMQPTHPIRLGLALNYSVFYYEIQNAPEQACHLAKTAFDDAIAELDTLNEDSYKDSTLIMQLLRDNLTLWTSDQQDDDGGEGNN

14-3-3β = biological target: B3; test: fluorescence polarisation; two-dimensional fluorescence anisotropy; 14-3-3β titrated to FITC-labeled F1, F2, F3, F4 or pepD (10 nM) with varying concentrations of ChREBP peptide; fitted to a thermodynamic cooperativity model with KD II fixed at 1.5 µM; n = 2

Kd [1]: 1050 nM
Kd [2]: 1180 nM and 1130 nM and 1200 nM
Kd [3]: 1140 nM and 1030 nM and 1100 nM
B1: macrocycle 4 (peptide)
chain: SFSXFK
modifications: not fully specified; phosphoserine (position 0); phenylalanine(+1) with a triazole (from azido phenylalanine, replacing Nph(+1)) cyclised to the backbone amide nitrogen of Lys(+5) through an alkyl linker x = 4 (from 5-hexyn-1-ol); β-homoSer(+2); β-Ala(+3); 4-nitrophenylalanine Nph(+4); Ac- (Ac-macrocycles)

Kd [4]: 7500 nM
Kd [5]: 8900 nM
B2: FITC-labeled pepD (peptide)
chain: [pS][Phe(4-NO2)][β3hS][βAla][Phe(4-NO2)]K
modifications: also: FITC label, site not given here

Binder: B3
cooperativity factor α with ChREBP peptide (macrocycle F1): 339 ± 35
cooperativity factor α with ChREBP peptide (macrocycle F4): 42 ± 1
cooperativity factor α with ChREBP peptide (FITC-labeled pepD): 38 ± 2
cooperativity factor α with ChREBP peptide (macrocycle F3): 12 ± 1

Binder: B4
Kd (14-3-3γ): 57000 nM
Kd (14-3-3β): 72000 ± 1400 nM

Kd [1]: 167 nM
Kd [2]: 228 nM and 253 nM and 240 nM
Kd [3]: 220 nM and 233 nM and 230 nM
B5: macrocycle 3 (peptide)
chain: Ac-[pS][azidoPhe][β3hS][βAla][Phe(4-NO2)]K
modifications: bridge 2-6; not fully specified (bridges); also: triazole of Phe(+1) (from azido phenylalanine) cyclised to backbone amide nitrogen of Lys(+5)
